The source of these data is US20220363763A1 (ABL BIO, published 2022).

The target in assay [1] is T1, human PD-L1-Fc protein (human, UniProt Q9NZQ7 19-239).
T1 construct: Coated on ELISA plates; also called huPD-L1; not shown: Fc part
The assay can be described thus: ELISA on coated PD-L1-Fc. On the technique in general: ELISA stands for enzyme-linked immunosorbent assay.

Assay [2] deals with T1, human PD-L1-Fc protein. The experiment in a line: ELISA receptor blocking, coated PD-L1-Fc, competitor biotin PD-1-Fc. The procedure: To evaluate the blocking effect of HL1210-3 mouse mAb on recombinant human PD-L1 to bind to its receptor PD-1, the ELISA based receptor blocking assay was employed. Briefly, microtiter plates were coated with human PD-L1-Fc protein at 1 μg/ml in PBS, 100 μl/well at 4° C. overnight, then blocked with 100 μl/well of 5% BSA. 50 μl biotin-labeled human PD-1-Fc protein and 3-fold dilutions of HL1210-3 antibodies starting from 2 μg/ml at 50 μl were added to each well and incubated for 1 hour at 37° C. The plates were washed with PBS/Tween and then incubated with Streptavidin-HRP for 1 hour at 37° C. After washing, the plates were developed with TMB substrate and analyzed by spectrophotometer at OD 450-630 nm.

The target in assay [3] is T2, human PD-L1 expressed on mammalian cells (human, UniProt Q9NZQ7 19-290).
T2 construct: whole, on cells; also called PDL1-CHOK1 cells; PDL1-Raji cells
T2 sequence (Q9NZQ7 19-290): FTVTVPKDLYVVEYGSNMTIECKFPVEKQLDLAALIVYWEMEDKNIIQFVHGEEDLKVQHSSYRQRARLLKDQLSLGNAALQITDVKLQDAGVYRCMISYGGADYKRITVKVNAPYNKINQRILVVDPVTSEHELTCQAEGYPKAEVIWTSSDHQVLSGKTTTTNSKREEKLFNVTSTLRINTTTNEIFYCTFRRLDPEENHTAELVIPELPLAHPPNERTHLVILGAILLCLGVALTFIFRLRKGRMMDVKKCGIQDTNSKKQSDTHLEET
The assay can be described thus: FACS receptor blocking on PDL1-CHOK1 cells, competitor biotin huPD-1. The procedure:
(§1) To evaluate the blocking effect of HL1210-3 mouse mAb on human PD-L1 expressed on mammalian cells to bind to its receptor PD-1, the FACS-based receptor blocking assay was used. Briefly, PDL1-CHOK1 cells were firstly incubated with 3-fold serious diluted HL1210-3 mouse mAb starting at 20 μg/ml at RT for 1 hour. After wash by FACS buffer (PBS with 2% FBS), the biotin-labeled huPD-1 was added to each well and incubated at RT for 1 hour. Then, the Streptavidin-PE was added to each well for 0.5 hour post twice wash with FACS buffer. The mean florescence intensity (MFI) of PE was evaluated by FACSAriaIII.

Assay [4] concerns the target T3, human PD-L1-his taq protein (human, UniProt Q9NZQ7 19-239, limits assumed).
T3 construct: also called recombinant PD-L1 protein; recombinant human PD-L1; not shown: his tag
The experiment in a line: SPR Biacore T200, antibody captured by anti-mouse Fc, PD-L1-his injected. How it is done:
The binding of the HL1210-3 antibodies to recombinant PD-L1 protein (human PD-L1-his taq) was tested with BIACORE™ using a capture method. The HL1210-3 mouse mAb was captured using anti-mouse Fc antibody coated on a CM5 chip. A series dilution of human PD-L1-his taq protein was injected over captured antibody for 3 mins at a flow rate of […]. The antigen was allowed to dissociate for 900 s. All the experiment were carded out on a Biacore T200. Data analysis was carried out using Biacore T200 evaluation software.
On the technique in general: In SPR one partner is held on a chip, and binding of the other changes the refractive index at the surface.

The target in assay [5] is T2, human PD-L1 expressed on mammalian cells. The experiment in a line: FACS-based receptor blocking on PDL1-CHOK1 cells; blocked ligand biotin-labeled huPD-1; unit from the x axis Log [Con. M]; the text prints the rounded 2.56 nM. How it is done: as §1
For assay [6], the target named is T4, human LAG3-His protein (Sinobio, 16498-H08H) (human, UniProt P18627 23-450).
T4 construct: also called human LAG3 protein; not shown: His tag
T4 sequence (looked up): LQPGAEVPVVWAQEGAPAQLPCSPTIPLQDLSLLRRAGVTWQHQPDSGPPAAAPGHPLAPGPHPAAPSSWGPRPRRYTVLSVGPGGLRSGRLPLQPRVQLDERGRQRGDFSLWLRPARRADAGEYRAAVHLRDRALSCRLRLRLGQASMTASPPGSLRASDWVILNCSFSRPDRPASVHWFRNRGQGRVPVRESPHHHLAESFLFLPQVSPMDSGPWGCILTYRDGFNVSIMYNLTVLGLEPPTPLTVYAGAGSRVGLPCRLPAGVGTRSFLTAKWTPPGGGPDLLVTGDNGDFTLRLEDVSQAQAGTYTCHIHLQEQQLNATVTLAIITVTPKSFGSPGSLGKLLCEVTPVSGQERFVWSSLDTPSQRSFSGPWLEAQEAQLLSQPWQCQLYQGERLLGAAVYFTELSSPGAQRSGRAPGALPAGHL
The assay can be described thus: ELISA on coated LAG3-His. The source says:
To evaluate the binding activity to PD-L1 and LAG3 of the bispecific antibodies (BsAb; H12x147 and 147xH12) prepared in Example 3, the BsAb were subjected to ELISA test.

T3 sequence (Q9NZQ7 19-239 limits assumed): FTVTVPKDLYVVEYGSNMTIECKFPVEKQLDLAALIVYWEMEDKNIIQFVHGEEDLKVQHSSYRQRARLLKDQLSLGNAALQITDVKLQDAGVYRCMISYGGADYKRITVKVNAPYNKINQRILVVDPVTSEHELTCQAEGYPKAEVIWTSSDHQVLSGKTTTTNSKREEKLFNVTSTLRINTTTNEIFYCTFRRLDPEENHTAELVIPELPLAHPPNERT
T1 sequence (Q9NZQ7 19-239 limits assumed): as above

B1: HL1210-3 mouse mAb (antibody, V domains shown)
VH: EVKLVESGGDLVKPGGSLKLSCAASGFTFSSYDMSWVRQTPEKSLEWVATISDGGGYIYYSDSVKGRFTISRDNAKNNLYLQMSSLRSEDTALYICAREFGKRYALDYWGQGTSVT
VL: DIVMTQSHKFMSTSVGDRVSISCKASQDVTPAVAWYQQKPGQSPKLLIYSTSSRYTGVPDRFTGSGSGTDFTFTISSVQAEDLAVYYCQQHYTTPLTFGAGTKLELK
notes: Mouse monoclonal antibody purified from hybridoma; also called hybridoma clone HL1210-3
In turn, B1 came in with an EC50 in assay [1] of 5.54 ng/mL. Further, the IC50 turned out to be 0.783 nM in assay [2], 2.56 nM in assay [3] and 2.56 nM in assay [5]. Besides, in assay [4], binding was put at a Kd of 0.293 nM. This molecule also registered an off-rate (koff) in assay [4] of 4.69e-05 s⁻¹. Moreover, the kon in assay [4] came to 161000 M⁻¹ s⁻¹.

B2: H12x147 (bispecific antibody, human IgG1, kappa, N297A)
heavy: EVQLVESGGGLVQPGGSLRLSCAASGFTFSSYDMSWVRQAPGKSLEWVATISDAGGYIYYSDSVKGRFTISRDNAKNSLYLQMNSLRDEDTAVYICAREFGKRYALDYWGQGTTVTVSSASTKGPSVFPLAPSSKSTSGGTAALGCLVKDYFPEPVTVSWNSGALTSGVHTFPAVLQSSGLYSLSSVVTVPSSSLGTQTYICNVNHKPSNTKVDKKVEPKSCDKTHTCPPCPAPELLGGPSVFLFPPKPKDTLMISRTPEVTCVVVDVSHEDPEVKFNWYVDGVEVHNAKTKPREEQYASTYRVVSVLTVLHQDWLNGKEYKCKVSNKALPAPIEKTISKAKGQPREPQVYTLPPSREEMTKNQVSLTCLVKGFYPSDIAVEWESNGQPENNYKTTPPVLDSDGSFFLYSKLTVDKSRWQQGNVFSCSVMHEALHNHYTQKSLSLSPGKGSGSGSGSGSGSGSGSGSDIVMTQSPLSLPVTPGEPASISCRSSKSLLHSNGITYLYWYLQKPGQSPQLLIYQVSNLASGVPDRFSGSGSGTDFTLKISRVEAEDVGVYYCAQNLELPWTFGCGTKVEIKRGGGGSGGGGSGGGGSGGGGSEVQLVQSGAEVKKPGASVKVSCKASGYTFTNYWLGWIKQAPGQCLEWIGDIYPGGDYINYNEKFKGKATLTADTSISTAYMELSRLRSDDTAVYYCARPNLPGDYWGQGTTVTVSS
light: DIQMTQSPSSLSASVGDRVTITCKASQDVTPAVAWYQQKPGKAPKLLIYSTSSRYTGVPSRFSGSGSGTDFTFTISSLQPEDIATYYCQQHYTTPLTFGQGTKLEIKRTVAAPSVFIFPPSDEQLKSGTASVVCLLNNFYPREAKVQWKVDNALQSGNSQESVTEQDSKDSTYSLSSTLTLSKADYEKHKVYACEVTHQGLSSPVTKSFNRGEC
notes: also called L1A3
Regarding B2, the binding result in assay [6] and in assay [1] was “binds” each time.

For orientation: EC50 means the concentration that produces a half-maximal response. Lower therefore signals higher potency in that assay. In general, IC50 refers to the concentration at which inhibition is half-maximal. A low value points to higher potency. What is called Kd is the equilibrium constant for the complex coming apart. Higher therefore signals lower affinity. A word on the koff: it is a measure of how fast the partners let go of each other. The term kon denotes the rate constant with which the complex forms. Read a high kon as faster complex formation.
